Here are results for six proteins from paper PMC11234212.

The nature of data set [1]: CHX chase, western blot.
The nature of data set [2]: RALY ubiquitination western blot. (A western blot detects proteins with antibodies after separation by electrophoresis.)
Data set [3] is described as follows: western blot of RALY protein.
Data set [4] is described as follows: half-life analysis, western blot, Hep3B and Huh7. Conditions: glycan gained; control: DMSO.
Where [5] appears, read: glycan lost, control: RALYKO-WT.
[6] abbreviates: glycan gained, control: untreated / control-transfected cells.

B1: RALY: S176A (protein)
parent chain: MSLKLQASNVTNKNDPKSINSRVFIGNLNTALVKKSDVETIFSKYGRVAGCSVHKGYAFVQYSNERHARAAVLGENGRVLAGQTLDINMAGEPKPDRPKGLKRAASAIYSGYIFDYDYYRDDFYDRLFDYRGRLSPVPVPRAVPVKRPRVTVPLVRRVKTNVPVKLFARSTAVTTSSAKIKLKSSELQAIKTELTQIKSNIDALLSRLEQIAAEQKANPDGKKKGDGGGAGGGGGGGGSGGGGSGGGGGGGSSRPPAPQENTTSEAGLPQGEARTRDDGDEEGLLTHSEEELEHSQDTDADDGALQ
On to B1, for which the degradation_or_half_life result in data set [1] (setting [5]) was “decreases”. Moreover, the “other: ubiquitination” value in data set [2] (setting [5]) was “increases”.

B2: RALY: PUG (protein)
parent chain: B1 parent chain
For B2, in data set [3] (setting [6]), the expression_or_secretion result is given as “increases”. Besides, the “degradation_or_half_life, half_life” value in data set [4] is “increases”.

B3: RALY: siOGT (protein)
parent chain: B1 parent chain
For the protein B3, the expression_or_secretion result in data set [3] (glycan lost, control: untreated / control-transfected cells) is recorded as “decreases”.

B4: RALY: TMG or PUG (protein)
parent chain: B1 parent chain
Regarding B4, the degradation_or_half_life entry in data set [1] (glycan gained, control: untreated RALYKO-WT) is listed as “increases”.

B5: RALY: TMG (protein)
parent chain: B1 parent chain
Regarding B5, the expression_or_secretion result in data set [3] (glycan gained, control: TRIM27-overexpressing cells without TMG) is listed as “increases”; in data set [3] (setting [6]) it was “increases”. In data set [2] (glycan gained, control: untreated), the “other: ubiquitination” value is “decreases”. Further, the “degradation_or_half_life, half_life” value in data set [4] is reported as “increases, approximately 40 (Hep3B), 32 (Huh7) vs approximately 16 (Hep3B), 15 (Huh7)”.

B6: RALY: OE-OGT (protein)
parent chain: B1 parent chain
For the protein B6, the expression_or_secretion result in data set [3] (setting [6]) is “increases”.
